Data reported in US20210277068A1 (SHANXI KANGBAO BIOLOGICAL PRODUCT, published 2021).
Ends that are not written are not given here. * marks the point of attachment. Stearoyl = CCCCCCCCCCCCCCCCCC(=O)*; Palmitoyl = CCCCCCCCCCCCCCCC(=O)*

How the values were obtained:
N39 [1] = biological target: T1, N39 (HIV-1, N-terminal acetyl (Ac-); C-terminal amide (-NH2)); assay: circular dichroism temperature scan at 220 nm of the 1:1 mixture with N39, 10 µM each in PBS pH 7.2
T1 peptide: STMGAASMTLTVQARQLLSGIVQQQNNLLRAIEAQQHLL

N39 [2] = biological target: T1, N39; assay: circular dichroism temperature scan at 220 nm of the 1:1 mixture with N39, 10 µM each in PBS pH 7.2; difference against LP-52
[3] = biological target: gp41 of the envelope protein (Env) of the D36G mutant of HIV-1 strain NL4-3 (HIV-1 strain NL4-3); assay: cell-based or functional assay
[4] = biological target: gp41 of the envelope protein of HIV-1 strain JRCSF (HIV-1 strain JRCSF); assay: cell-based or functional assay
[5] = biological target: gp41 of the envelope protein (Env) of HIV-1 strain HXB2 (HIV-1 strain HXB2, UniProt P04578 33-856); assay: cell-based or functional assay
N39 [6] = biological target: T1, N39; assay: circular dichroism of the 1:1 mixture with N39, 10 µM each in PBS pH 7.2

B1: LP-69 (peptide)
peptide: Ac-IEELLKKAEEQQKKNEEELKK(Palmitoyl)-NH2
SMILES: CCCCCCCCCCCCCCCC(=O)NCCCC[C@H](NC(=O)[C@H](CCCCN)NC(=O)[C@H](CC(C)C)NC(=O)[C@H](CCC(=O)O)NC(=O)[C@H](CCC(=O)O)NC(=O)[C@H](CCC(=O)O)NC(=O)[C@H](CC(N)=O)NC(=O)[C@H](CCCCN)NC(=O)[C@H](CCCCN)NC(=O)[C@H](CCC(N)=O)NC(=O)[C@H](CCC(N)=O)NC(=O)[C@H](CCC(=O)O)NC(=O)[C@H](CCC(=O)O)NC(=O)[C@H](C)NC(=O)[C@H](CCCCN)NC(=O)[C@H](CCCCN)NC(=O)[C@H](CC(C)C)NC(=O)[C@H](CC(C)C)NC(=O)[C@H](CCC(=O)O)NC(=O)[C@H](CCC(=O)O)NC(=O)[C@@H](NC(C)=O)[C@@H](C)CC)C(N)=O
notes: Residues 1-21 follow from the statement that LP-69 is LP-65 (24 residues) without its C-terminal LEK
With B1 as the binder, how does the “Tm value of the complex” value (N39 [1]) read?
Its value is 51 °C.

And the “Tm value lower than that of the LP-52 by” value (N39 [2])?
The value was 28.1 °C.

B2: LP-50 (peptide)
peptide: Ac-YTSLIEELIKKSEEQQKKNEEELKKLEK(Palmitoyl)-NH2
SMILES: CCCCCCCCCCCCCCCC(=O)NCCCC[C@H](NC(=O)[C@H](CCC(=O)O)NC(=O)[C@H](CC(C)C)NC(=O)[C@H](CCCCN)NC(=O)[C@H](CCCCN)NC(=O)[C@H](CC(C)C)NC(=O)[C@H](CCC(=O)O)NC(=O)[C@H](CCC(=O)O)NC(=O)[C@H](CCC(=O)O)NC(=O)[C@H](CC(N)=O)NC(=O)[C@H](CCCCN)NC(=O)[C@H](CCCCN)NC(=O)[C@H](CCC(N)=O)NC(=O)[C@H](CCC(N)=O)NC(=O)[C@H](CCC(=O)O)NC(=O)[C@H](CCC(=O)O)NC(=O)[C@H](CO)NC(=O)[C@H](CCCCN)NC(=O)[C@H](CCCCN)NC(=O)[C@@H](NC(=O)[C@H](CC(C)C)NC(=O)[C@H](CCC(=O)O)NC(=O)[C@H](CCC(=O)O)NC(=O)[C@@H](NC(=O)[C@H](CC(C)C)NC(=O)[C@H](CO)NC(=O)[C@@H](NC(=O)[C@H](Cc1ccc(O)cc1)NC(C)=O)[C@@H](C)O)[C@@H](C)CC)[C@@H](C)CC)C(N)=O
notes: LP-40 with EE**KK ion pairs introduced; also called P50 with C16
With B2 as the binder, how does the “Tm value of the complex” value (N39 [1]) read?
The value was 63.3 °C.

And the “IC50 for inhibiting pseudovirus (entry of NL4-3)” value [3]?
Its value is 7 pM.

What about the “IC50 for inhibiting replicative virus (replication of JRCSF)” value [4] of the same binder?
The value was 23 pM.

And the “IC50 for inhibiting cell fusion (HXB2-cell fusion)” value [5]?
Its value is 21 pM.

How did the “Tm value of the complex” value (N39 [1]) turn out when Ac-WEQKIEELLKKAEEQQKKNEEELKKLEK(Stearoyl)-NH2 [LP-80] was run?
Its value is 79 °C.

And the “IC50 for inhibiting HIV-1 strain NL4-3” value [3]?
The value was 2 pM.

What about the “IC50 for inhibiting HIV-1 strain JRCSF” value [4] of the same binder?
Its value is 2 pM.

With Ac-YTSLIHSLIEESQNQQEKNEQELLELDK (not fully specified (residue 28, C-terminus), also called T-20-based lipopeptide) [LP-40] as the binder, how does the “helix content of the complex” value (N39 [6]) read?
The value was 57.7%.

And the “Tm value of the complex” value (N39 [1])?
Its value is 51.3 °C.
